Test [1] relates to EPEA (SEQ ID NO:1)-tagged Rev protein. Description: In vivo detection of EPEA-tagged Rev in transfected HeLa cells by confocal microscopy. Type of test: cell-based, HIV. The settings on record: nanobody fused to mKO1 or GFP, GYQDYEPEA and EPEA tags.
Description: In another set of experiments, we explored the use of the EPEA (SEQ ID NO:1) tag to detect/visualize the expression of recombinant proteins within a (living) eukaryotic cell. […] Cells that are double-transfected with Rev-[sequence] (SEQ ID NO:10) or Rev-[sequence]
The two different tags [sequence] (SEQ ID NO:2) and EPEA (SEQ ID NO:1) were C-terminal fused to Rev by PCR using Takara Ex Taq polymerase (TAKARA BIO INC).
HeLa, human epithelial cells were maintained using standard procedures until confluent in DMEM medium with 10% fetal calf serum. For transfection of plasmid DNA in HeLa, cells were harvested by a Trypsin/EDTA treatment, counted and plated onto glass bottom microwell dishes (MatTek corporation). Transfections were preformed according to manufacturer's manual: the 4×10^5 cells were seeded in a 35 mm dish. […]
Transfected HeLa cells were imaged with a laser scanning SP5 confocal microscope (Leica Microsystems) equipped with an AF 6000 microscope and an AOBS, using a HCX PL APO×63 (NA 1.2) water immersion objective magnification. GFP was monitored with the Ar laser using the 488-nm line for excitation, and emission was detected between 492 and 570 nm. mKusabira orange fluorescent protein (mKO) was imaged using the DPSS-561 nm laser for excitation, and emission was detected between 570 and 675 nm.
The subject of test [2] is Nb458-gaaEPEA (SEQ ID NO:8). Kind of test: Solid phase ELISA, bivalent versus monovalent NbSyn2 alkaline phosphatase conjugate. The format is binding. The settings on record: alkaline phosphatase conjugates, dilutions 1/250 to 1/4000, OD405.

Nb458-gaaEPEA (SEQ ID NO:8), sequence (as listed by the source): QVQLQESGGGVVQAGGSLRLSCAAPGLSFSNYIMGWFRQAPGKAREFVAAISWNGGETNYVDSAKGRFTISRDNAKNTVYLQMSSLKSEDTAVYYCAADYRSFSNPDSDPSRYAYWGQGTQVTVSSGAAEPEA

B1: NbSyn1a: Nanobody that specifically binds to α-synuclein, 126 amino acids, SEQ ID NO:24 (protein)
VHH: EVQLVESGGGSVQAGGSLSLACAPSGLNASSYCMGWFRQSPGKEREGVARINGNAGIKTAYADSVKDRFTLSRDNAKNTVYLQMNSLKAEDSAIYFCAAKSSPGYCGGNWDNFGYWGQGTQVTVSS
modifications: Nb_Syn1a
Turning to B1, in test [1], the “Recognition of tagged Rev in double-transfected cells (colocalization in the nucleus)” value is listed as “recognized in vivo”.

B2: biNbSyn2: bivalent version of NbSyn2 (SEQ ID NO:68) with a GGGGSGGGS linker between both NbSyn2 sequences (protein)
chain: QVQLVESGGGSVQAGGSLRLSCAASGIDSSSYCMGWFRQRPGKEREGVARINGLGGVKTAYADSVKDRFTISRDNAENTVYLQMNSLKPEDTAIYYCAAKFSPGYCGGSWSNFGYWGQGTQVTVSSGGGGSGGGSQVQLQESGGGSVQAGGSLRLSCAASGIDSSSYCMGWFRQRPGKEREGVARINGLGGVKTAYADSVKDRFTISRDNAENTVYLQMNSLKPEDTAIYYCAAKFSPGYCGGSWSNFGYWGQGTQVTVSSHHHHHH
modifications: Nanobody biNbSyn2
On to B2, for which the “Sensitivity of ELISA detection compared with monovalent NbSyn2-AP conjugate” value in test [2] is listed as “sensitivity of detection increases”.

The record behind these values is patent US9518084B2, “Epitope tag for affinity-based applications” (VIB VZW, priority 2010, dated 2016).
